The text below walks through data of patent US20190271705A1.

Assay [1] concerns the target seven peptides (fluorescein-labeled pTyr-containing peptides of the fluorescence polarization assay). The assay is described as follows: fluorescence polarization in solution, SH2 domain titrated against fluorescein-labeled peptide. A general note: Fluorescence polarisation rises when a labelled molecule tumbles more slowly, as on binding a larger partner.
For assay [2] the target is unchanged. The assay is described as follows: fluorescence polarization in solution; average over seven peptides, reference wild-type Fyn SH2 domain.

Positions count from the first letter of the chain named. Names and notes keep the numbering of the source.

B1: wild-type Fyn SH2 domain (hexa-histidine-tagged construct, SEQ ID NO:4) (protein)
chain: MKIEEHHHHHHSSGRENLYFQGGAAQPAAPVDSIQAEEWYFGKLGRKDAERQLLSFGNPRGTFLIRESETTKGAYSLSIRDWDDMKGDHVKHYKIRKLDNGGYYITTRAQFETLQQLVQHYSERAAGLSSRLVVPSHKGAAA
In general, Kd refers to a measure of binding affinity in units of concentration. A higher Kd goes with weaker binding. The molecule B1 had a Kd in assay [1] of 10 µM.

B2: T8I/S10A/K15L variant Fyn SH2 domain (designed binder)
chain: B1 chain with T71I, S76A, K94L
In assay [2], B2 came in with an average fold affinity increase (Kd[wild-type] divided by Kd[variant]) of 86.4 fold.

B3: T8V variant Fyn SH2 domain (designed binder)
chain: B1 chain with T71V
In the case of B3, in assay [2], the average fold affinity increase (Kd[wild-type] divided by Kd[variant]) amounted to 1.4 fold.
